Assay results published in paper PMC13200455.

Tests used:
[1] = target: T1, USE1 (purified, His-USE1) (Homo sapiens, UniProt Q9H832 1-354); assay: Ni-NTA and streptavidin pull-down
[2] = target: T1, USE1 (purified, His-USE1); assay: equilibrium binding curve, one-site fit
[3] = target: T1, USE1 (purified, His-USE1); assay: ELONA titration
[4] = target: T1, USE1 (purified, His-USE1); assay: fluorescence/quencher displacement

T1 sequence (Q9H832 whole entry): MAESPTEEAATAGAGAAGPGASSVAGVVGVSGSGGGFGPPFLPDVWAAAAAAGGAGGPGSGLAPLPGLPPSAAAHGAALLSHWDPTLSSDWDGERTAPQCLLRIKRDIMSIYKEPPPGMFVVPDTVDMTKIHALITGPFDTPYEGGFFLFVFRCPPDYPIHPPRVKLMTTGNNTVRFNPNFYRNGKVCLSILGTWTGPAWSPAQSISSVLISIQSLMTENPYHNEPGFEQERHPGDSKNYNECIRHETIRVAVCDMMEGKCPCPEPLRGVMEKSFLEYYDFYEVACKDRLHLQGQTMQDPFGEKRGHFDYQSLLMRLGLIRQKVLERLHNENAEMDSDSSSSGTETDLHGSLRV

CACCTAACACGATTCACTATAGCTCGGGGTTTGGCA (ssDNA) [Aptamer 1e]
binding result [1]: binds

B1: Aptamer 3 (ssDNA)
DNA: CACCTAATACGACTCACTATAGCGGATCCGACAGAATGCCATCACCATGTCTAGACCTATTGGCTTTGCGACTGGCTCGAACAAGCTTGC
Kd [2]: 90 ± 2.42 nM

B2: Aptamer 1 (ssDNA)
DNA: CACCTAATACGACTCACTATAGCGGATCCGATGGGTGGGGGGGTGGGTAGGATCCGTTCGGGGTTTGGCATAGGGTCTGGCTCGAACAAGCTTGC
Kd [2]: 10 ± 2.76 nM | Kd [3]: 7.2 ± 2.91 nM

B3: Aptamer 1 fluorescence/quencher probe (mixed)
DNA 1: CACCTAATACGACTCACTATAGCGGATCCGATGGGTGGGGGGGTGGGTAGGATCCGTTCGGGGTTTGGCATAGGGTCTGGCTCGAACAAGCTTGC
DNA 2: GCAAGCTTGTTCGAGCCAG
DNA 3: CCCTATGCCAAAC
binding result [4]: binds

B4: Aptamer 2 (ssDNA)
DNA: CACCTAATACGACTCACTATAGCGGACAGGGCTGGTGTGGCTGGCGTCCGGCTCGAACAAGGCTGGTGTGGCTGGCGTTCTGGCTCGAACAAGCTTGC
Kd [2]: 32 ± 2.54 nM
